Measured values: patent US20250057976A1

What was measured:
[1] = biological target: IL31RA (mouse) (UniProt Q8K5B1); experiment: cell-based or functional assay
[2] = biological target: TrkA (mouse) (UniProt Q3UFB7); experiment: cell-based or functional assay
Chain of UniProt Q3UFB7 (Q3UFB7 34-799): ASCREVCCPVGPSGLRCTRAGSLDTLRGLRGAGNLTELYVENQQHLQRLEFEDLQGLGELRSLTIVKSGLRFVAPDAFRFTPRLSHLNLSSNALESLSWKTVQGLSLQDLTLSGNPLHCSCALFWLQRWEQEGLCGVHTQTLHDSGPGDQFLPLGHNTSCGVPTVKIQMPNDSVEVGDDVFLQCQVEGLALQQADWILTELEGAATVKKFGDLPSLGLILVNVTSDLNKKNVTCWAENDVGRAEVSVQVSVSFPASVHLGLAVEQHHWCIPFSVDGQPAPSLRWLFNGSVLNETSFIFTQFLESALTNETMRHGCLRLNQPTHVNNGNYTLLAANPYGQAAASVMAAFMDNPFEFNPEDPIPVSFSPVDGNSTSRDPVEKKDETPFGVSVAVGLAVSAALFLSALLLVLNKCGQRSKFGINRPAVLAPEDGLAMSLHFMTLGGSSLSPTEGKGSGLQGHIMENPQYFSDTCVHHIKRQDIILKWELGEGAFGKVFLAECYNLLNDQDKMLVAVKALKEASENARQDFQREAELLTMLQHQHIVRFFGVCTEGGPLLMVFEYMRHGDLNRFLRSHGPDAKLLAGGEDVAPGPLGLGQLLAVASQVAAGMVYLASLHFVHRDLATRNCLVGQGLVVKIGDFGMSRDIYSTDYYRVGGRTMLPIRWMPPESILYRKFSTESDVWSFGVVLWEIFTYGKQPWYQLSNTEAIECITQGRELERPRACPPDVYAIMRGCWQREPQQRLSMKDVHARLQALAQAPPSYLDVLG

Chain of UniProt Q8K5B1 (Q8K5B1 19-716): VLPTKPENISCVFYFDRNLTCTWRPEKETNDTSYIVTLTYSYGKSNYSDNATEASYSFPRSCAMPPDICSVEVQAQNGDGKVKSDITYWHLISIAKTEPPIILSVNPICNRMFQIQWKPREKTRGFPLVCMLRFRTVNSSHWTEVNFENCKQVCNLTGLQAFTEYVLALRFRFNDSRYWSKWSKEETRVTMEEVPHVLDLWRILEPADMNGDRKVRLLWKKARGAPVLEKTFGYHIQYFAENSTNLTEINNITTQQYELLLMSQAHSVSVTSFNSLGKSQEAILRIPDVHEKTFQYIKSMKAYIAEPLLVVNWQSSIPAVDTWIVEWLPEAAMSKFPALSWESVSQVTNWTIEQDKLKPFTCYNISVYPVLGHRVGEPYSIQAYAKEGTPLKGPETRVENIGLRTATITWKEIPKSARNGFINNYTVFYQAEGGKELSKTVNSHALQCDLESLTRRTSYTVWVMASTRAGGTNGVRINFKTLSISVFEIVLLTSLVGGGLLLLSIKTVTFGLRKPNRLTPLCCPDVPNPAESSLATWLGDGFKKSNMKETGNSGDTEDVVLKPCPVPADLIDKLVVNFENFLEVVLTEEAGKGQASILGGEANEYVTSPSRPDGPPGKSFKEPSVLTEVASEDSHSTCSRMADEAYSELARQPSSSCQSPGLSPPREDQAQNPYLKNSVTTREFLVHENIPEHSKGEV

IL31^K134A-SNAP::AAV2-ΔHSPG (from UniProt P03135 1-735)
overlap of virally infected cells with K14 positive keratinocytes, skin of wildtype mice, subcutaneous 3E+10 VG [1]: 100 percent

NGF^R121W-SNAP::AAV2-ΔHSPG (from UniProt P03135 1-735)
TrkA positive DRG cells infected after retro-orbital injection of 3E+10 VG [2]: 80%
infected DRG cells that are TrkA positive after retro-orbital injection of 3E+10 VG [2]: 83%
overlap of virally infected (tdTomato) sensory neurons with TrkA antibody staining, trigeminal ganglia, 3 weeks after IV injection [2]: > 80%
